Patent US10239925B2, “Peptides and combination of peptides for use in immunotherapy against ovarian cancer and other cancers” (IMMATICS BIOTECHNOLOGIES GMBH, priority 2015, dated 2019)

target: HLA-A*02:01 (Homo sapiens, UniProt P04439, D140Y/D185E/D98H/E176V/E277Q/G131W/G231S/I119V/I121R/I166T/I218V/L300P/L318F/N151K/N90K/P208A/P217A/Q86G/Q94H/R138H/R169H/T345S); assay: MHC binding assay (UV-ligand exchange, anti-β2m ELISA, peptide exchange yield); details: binding to HLA-A*02:01
How it was run: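 Peptide-MHC complexes formed by UV-ligand exchange, cleaving a UV-sensitive placeholder peptide in favour of the test peptide. Exchange yield measured by ELISA: monomers diluted 100-fold onto streptavidin-coated plates, 1 h 37 °C, detected with 2 ug/ml HRP anti-β2m and TMB, absorbance at 450 nm.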

| Peptide exchange (MHC class I binding score, peptide exchange yield) | Substance |
| --- | --- |
| “+++” (>50 = +++) | 286 (YLFPGIPEL; listed as Homo sapiens) [compound 286] |
| “+++” (>50 = +++) | 287 (FLNEFFLNV; listed as Homo sapiens) [compound 287] |
| “+++” (>50 = +++) | 288 (NLINEINGV; listed as Homo sapiens) [compound 288] |
| “++++” (>75% = ++++) | 289 (VLLEIEDLQV; listed as Homo sapiens) [compound 289] |
| “+++” (>50 = +++) | 295 (VLDRESPNV; listed as Homo sapiens) [compound 295] |
| “+++” (>50 = +++) | 296 (FMEGAIIYV; listed as Homo sapiens) [compound 296] |
| “+++” (>50 = +++) | 297 (VLADIELAQA; listed as Homo sapiens) [compound 297] |
| “+++” (>50 = +++) | 298 (VMITKLVEV; listed as Homo sapiens) [compound 298] |
| “+++” (>50 = +++) | 299 (YLLETSGNL; listed as Homo sapiens) [compound 299] |
| “+++” (>50 = +++) | 300 (ALLGQTFSL; listed as Homo sapiens) [compound 300] |
| “+++” (>50 = +++) | 301 (FLVEDLVDSL; listed as Homo sapiens) [compound 301] |
| “+++” (>50 = +++) | 302 (ALLQEGEVYSA; listed as Homo sapiens) [compound 302] |
| “++++” (>75% = ++++) | 303 (AILPQLFMV; listed as Homo sapiens) [compound 303] |
| “+++” (>50 = +++) | 304 (MTLGQIYYL; listed as Homo sapiens) [compound 304] |
| “++++” (>75% = ++++) | 305 (SIANFSEFYV; listed as Homo sapiens) [compound 305] |
| “+++” (>50 = +++) | 306 (ALVNVQIPL; listed as Homo sapiens) [compound 306] |
| “+++” (>50 = +++) | 307 (ALPVSLPQI; listed as Homo sapiens) [compound 307] |
| “+++” (>50 = +++) | 308 (SQYSGQLHEV; listed as Homo sapiens) [compound 308] |
| “+++” (>50 = +++) | 309 (GLFDGVPTTA; listed as Homo sapiens) [compound 309] |
| “++++” (>75% = ++++) | 310 (FLVDTPLARA; listed as Homo sapiens) [compound 310] |
| “+++” (>50 = +++) | 311 (RLYTGMHTV; listed as Homo sapiens) [compound 311] |
| “+++” (>50 = +++) | 312 (IISDLTIAL; listed as Homo sapiens) [compound 312] |

| Peptide exchange (MHC class I binding score, peptide exchange yield) | Substance |
| --- | --- |
| “+++” (>50 = +++) | 313 (VLFDDELLMV; listed as Homo sapiens) [compound 313] |
| “+++” (>50 = +++) | 314 (ALIAEGIALV; listed as Homo sapiens) [compound 314] |
| “+++” (>50 = +++) | 315 (YLQDVVEQA; listed as Homo sapiens) [compound 315] |
| “+++” (>50 = +++) | 316 (ILLERLWYV; listed as Homo sapiens) [compound 316] |
| “+++” (>50 = +++) | 317 (SLAALVVHV; listed as Homo sapiens) [compound 317] |
| “++” (>20% = ++) | 318 (GLINTGVLSV; listed as Homo sapiens) [compound 318] |
| “++++” (>75% = ++++) | 320 (KMFEFVEPLL; listed as Homo sapiens) [compound 320] |
| “++++” (>75% = ++++) | 321 (GLFEDVTQPGILL; listed as Homo sapiens) [compound 321] |
| “+++” (>50 = +++) | 322 (TLMTSLPAL; listed as Homo sapiens) [compound 322] |
| “+++” (>50 = +++) | 324 (FLYDEIEAEV; listed as Homo sapiens) [compound 324] |
| “+++” (>50 = +++) | 325 (FIMPATVADATAV; listed as Homo sapiens) [compound 325] |
| “+++” (>50 = +++) | 326 (FLPEALDFV; listed as Homo sapiens) [compound 326] |
| “+++” (>50 = +++) | 327 (GLAPFTEGISFV; listed as Homo sapiens) [compound 327] |
| “+++” (>50 = +++) | 328 (ALNDQVFEI; listed as Homo sapiens) [compound 328] |
| “++++” (>75% = ++++) | 329 (FLVTLNNVEV; listed as Homo sapiens) [compound 329] |
| “+++” (>50 = +++) | 330 (QLALKVEGV; listed as Homo sapiens) [compound 330] |
| “+++” (>50 = +++) | 331 (KVDTVWVNV; listed as Homo sapiens) [compound 331] |
| “+++” (>50 = +++) | 332 (YLISELEAA; listed as Homo sapiens) [compound 332] |
| “++” (>20% = ++) | 333 (FLPDANSSV; listed as Homo sapiens) [compound 333] |
| “+++” (>50 = +++) | 334 (TLTKVLVAL; listed as Homo sapiens) [compound 334] |
| “+++” (>50 = +++) | 335 (YSLSSVVTV; listed as Homo sapiens) [compound 335] |
| “+++” (>50 = +++) | 336 (ILLTAIVQV; listed as Homo sapiens) [compound 336] |

| Peptide exchange (MHC class I binding score, peptide exchange yield) | Substance |
| --- | --- |
| “++++” (>75% = ++++) | 337 (HLLSELEAAPYL; listed as Homo sapiens) [compound 337] |
| “++++” (>75% = ++++) | 339 (GLWEIENNPTVKA; listed as Homo sapiens) [compound 339] |
| “++++” (>75% = ++++) | 340 (ALLSMTFPL; listed as Homo sapiens) [compound 340] |
| “+++” (>50 = +++) | 341 (SQIALNEKLVNL; listed as Homo sapiens) [compound 341] |
| “+++” (>50 = +++) | 342 (HIYDKVMTV; listed as Homo sapiens) [compound 342] |
| “+++” (>50 = +++) | 343 (SLLEVNEESTV; listed as Homo sapiens) [compound 343] |
| “+++” (>50 = +++) | 344 (YLQDQHLLLTV; listed as Homo sapiens) [compound 344] |
| “+++” (>50 = +++) | 345 (VIWKALIHL; listed as Homo sapiens) [compound 345] |
| “+++” (>50 = +++) | 346 (LLDSKVPSV; listed as Homo sapiens) [compound 346] |
| “++++” (>75% = ++++) | 347 (SLFKHDPAAWEA; listed as Homo sapiens) [compound 347] |
| “++++” (>75% = ++++) | 348 (ILLDVKTRL; listed as Homo sapiens) [compound 348] |
| “++++” (>75% = ++++) | 349 (SLTEYLQNV; listed as Homo sapiens) [compound 349] |
| “+++” (>50 = +++) | 350 (ALLDVTHSELTV; listed as Homo sapiens) [compound 350] |
| “+++” (>50 = +++) | 351 (SLIPNLRNV; listed as Homo sapiens) [compound 351] |
| “+++” (>50 = +++) | 352 (SLLELLHIYV; listed as Homo sapiens) [compound 352] |
| “++” (>20% = ++) | 353 (YLFEMDSSL; listed as Homo sapiens) [compound 353] |
| “++” (>20% = ++) | 354 (LILEGVDTV; listed as Homo sapiens) [compound 354] |
| “++” (>20% = ++) | 355 (SIQQSIERLLV; listed as Homo sapiens) [compound 355] |
| “+++” (>50 = +++) | 356 (KLLGKLPEL; listed as Homo sapiens) [compound 356] |
| “+++” (>50 = +++) | 357 (SMHDLVLQV; listed as Homo sapiens) [compound 357] |
| “++++” (>75% = ++++) | 358 (ALDEYTSEL; listed as Homo sapiens) [compound 358] |
| “+++” (>50 = +++) | 359 (YLLPESVDL; listed as Homo sapiens) [compound 359] |
